Assay results reported in patent US20040006215A1 (Bristol-Myers Squibb, published 2004).
Values joined by “and” are separate entries in the source; they are usually repeats but may differ in a detail not shown here. Identical values can stand only once. Values belong to the binder of their own block, whether it stands above or below them.

Tests used:
[1] = target: native CD30 expressed on cells (L540 Hodgkin's lymphoma cell line) (human) (UniProt P28908); assay: cell-based or functional assay
[2] = target: native CD30 expressed on cells (L540 Hodgkin's lymphoma cell line) (human) (UniProt P28908); assay: flow cytometry on L540 cells
[3] = target: T1, Human CD30 antigen (Medarex, Inc.) (human) (UniProt P28908); assay: SPR (Biacore 3000), 5F11 captured on protein A, CD30 as analyte, 1:1 Langmuir fit, experiment 1
T1 sequence (looked up): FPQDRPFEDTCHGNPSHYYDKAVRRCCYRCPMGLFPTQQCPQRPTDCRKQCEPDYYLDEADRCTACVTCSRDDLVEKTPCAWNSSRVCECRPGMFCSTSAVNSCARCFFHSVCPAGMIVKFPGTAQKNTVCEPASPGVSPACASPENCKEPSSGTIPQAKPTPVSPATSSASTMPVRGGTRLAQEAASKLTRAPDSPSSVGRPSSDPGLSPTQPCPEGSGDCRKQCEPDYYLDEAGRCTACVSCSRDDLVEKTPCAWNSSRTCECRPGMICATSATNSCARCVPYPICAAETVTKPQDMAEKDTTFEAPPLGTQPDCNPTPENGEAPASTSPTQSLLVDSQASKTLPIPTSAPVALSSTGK

[4] = target: T1, Human CD30 antigen (Medarex, Inc.) (human); assay: SPR (Biacore 3000), 5F11 captured on protein A, CD30 as analyte, 1:1 Langmuir fit, experiment 2
[5] = target: native CD30 expressed on cells (L540 Hodgkin's lymphoma cell line) (human) (UniProt P28908); assay: flow cytometry on L540 cells at 4 °C, detection with FITC-labeled goat anti-human IgG Fc, mean fluorescence intensity
[6] = target: T2, recombinant CD30 (supernatant from transfected cells expressing recombinant CD30) (UniProt P28908); assay: capture ELISA: recombinant CD30 captured on BerH2-coated wells, detection with AP-labeled goat anti-human IgG Fc, OD405
T2 sequence (looked up): T1 sequence (looked up)

[7] = target: T3, native CD30 expressed on cells (L540 Hodgkin's lymphoma cell line) (human, UniProt P28908 19-595); assay: flow cytometry on L540 cells at 4 °C, detection with FITC-labeled goat anti-human IgG Fc, mean fluorescence intensity
T3 construct: whole, on cells; also called CD30 on L540 cells; CD30-expressing L540 cells
T3 sequence (looked up): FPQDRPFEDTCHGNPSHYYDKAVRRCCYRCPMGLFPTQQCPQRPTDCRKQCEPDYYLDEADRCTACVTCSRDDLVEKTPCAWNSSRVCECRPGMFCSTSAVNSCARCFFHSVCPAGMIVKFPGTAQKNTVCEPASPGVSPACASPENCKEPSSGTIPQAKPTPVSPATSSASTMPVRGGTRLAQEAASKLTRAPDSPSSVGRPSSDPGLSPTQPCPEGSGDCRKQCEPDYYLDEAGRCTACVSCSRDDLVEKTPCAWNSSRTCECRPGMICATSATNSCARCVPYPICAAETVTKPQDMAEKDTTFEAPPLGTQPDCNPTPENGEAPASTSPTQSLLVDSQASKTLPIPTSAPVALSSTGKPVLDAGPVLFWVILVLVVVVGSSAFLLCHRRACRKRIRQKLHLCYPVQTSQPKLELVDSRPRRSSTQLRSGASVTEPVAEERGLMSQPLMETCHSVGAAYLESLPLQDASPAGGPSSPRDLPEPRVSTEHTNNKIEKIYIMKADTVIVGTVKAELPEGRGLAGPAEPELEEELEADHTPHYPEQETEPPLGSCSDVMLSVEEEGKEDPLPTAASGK
Method: Antibodies were tested for binding to L540, a Hodgkin's lymphoma cell line that expresses high-levels of CD30. […] After 1 hour, the cells were washed with PBS and the bound antibodies were detected by incubating the cells with a FITC labeled goat anti-human IgG Fc-specific probe, at 4° C. The excess probe was washed from the cells with PBS and the cell associated fluorescence was determined by analysis using a FACScalibur instrument.

[8] = target: T4, recombinant CD30 (supernatant from transfected cells expressing recombinant CD30) (UniProt P28908 19-379, limits assumed); assay: capture ELISA: recombinant CD30 captured on BerH2-coated wells, detection with AP-labeled goat anti-human IgG Fc, OD405
T4 construct: May be the same preparation as the soluble recombinant CD30 used for immunisation or as m4
T4 sequence (looked up): T1 sequence (looked up)
Method: Microtiter wells were coated with BerH2. After blocking the wells with 5% BSA solution, supernatant from transfected cells expressing recombinant CD30 was allowed to react with BER-H2 coated wells. […] After 1 hour, the wells were washed with PBS-tween and the bound antibodies were detected by incubating the cells with an alkaline-phosphatase-labeled goat anti-human IgG Fc-specific probe, at 37° C. The excess probe was washed from the wells and the plate was developed with pNPP developer. The optical density at 405 nm was determined using a microtiter plate reader.

IC50 of growth inhibition (XTT assay) of L540 and Karpas 299 cells, 5F11 cross-linked by goat-anti-human IgG [1]: 10 µg/mL
concentration at saturation [2]: < 1 µg/mL
Kd [3]: 1.23 nM and 1.36 nM
koff [3]: 7.47e-05 s⁻¹ and 7.03e-05 s⁻¹
kon [3]: 60900 M⁻¹ s⁻¹ and 51600 M⁻¹ s⁻¹
Kd [4]: 1.14 nM and 1.12 nM
koff [4]: 6.58e-05 s⁻¹ and 6.86e-05 s⁻¹
kon [4]: 57700 M⁻¹ s⁻¹ and 61300 M⁻¹ s⁻¹
EC50 (read off the curve) [5]: 0.05 µg/mL
EC50 (read off the curve) [6]: 0.04 µg/mL
B1: human monoclonal antibody (HuMab) 5F11 (antibody, V domains shown)
VH: QVQLQQWGAGLLKPSETLSLTCAVYGGSFSAYYWSWIRQPPGKGLEWIGDINHGGGTNYNPSLKSRVTISVDTSKNQFSLKLNSVTAADTAVYYCASLTAYWGQGSLVTVSS
VL: DIQMTQSPTSLSASVGDRVTITCRASQGISSWLTWYQQKPEKAPKSLIYAASSLQSGVPSRFSGSGSGTDFTLTISSLQPEDFATYYCQQYDSYPITFGQGTRLEIK

EC50 (read off the curve) [7]: ~0.1 µg/mL
EC50 (read off the curve) [8]: ~0.03 µg/mL
B2: human monoclonal antibody (HuMab) 2H9 (antibody, V domains shown)
VH: QVQLQQWGAGLLKPSETLSLTCAVYGGSFSGYYWSWIRQPPGKGLEWIGEINHSGSTKYTPSLKSRVTISVDTSKHQFSLKLSSVTAADTAVYYCARETVYYFDLWGRGTLVTVSS
VL: EIVLTQSPATLSLSPGERATLSCRASQSVSSNLAWYQQKPGQAPRLLIYDASNRATGIPARLSGSGSGTDFTLTISSLEPEDFAVYYCQQRSNWPWTFGQGTKVEIK
